The series is described as follows: label from the status in PepcDB records.

The record followed here is a protein production outcome set (Wang et al. 2014).
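Further: failed if final PepcDB status was selected cloned or expressed and not failed if soluble or beyond.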

In the case of “MKRWQMEWLLVSVALVWGANYTIGKYGVAYMSSIQFNSLRFLVASPVLLLITFLMERSLRIDRKDWLRLVAVGIVGTTMYQTMFMLSVKYTSATNASLLIAMSPIFTGILAVLHKQERFSMKVQIGSIVAFIGAAFVLLTGHTGGTTYEYAWLGNIIGLVAAIAWGWYPILAQPLITKYSAMRVTSWSTLIGIVPLVVYCLFNVNTLTWPVDMPSWGSLAYSIVFATIFGLAMWYVGISKIGSTKVMVYMYLVPLFAVIFAAVTIGEQINMMQLVGGLIIFIGLYVVKKGGIQKPALNLKKVS”, the protein production entry is on record as “failed”.
For “MKRYRTLLFDVDDTILDFQAAEALALRLLFEDQNIPLTNDMKAQYKTINQGLWRAFEEGKMTRDEVVNTRFSALLKEYGYEADGALLEQKYRRFLEEGHQLIDGAFDLISNLQQQFDLYIVTNGVSHTQYKRLRDSGLFPFFKDIFVSEDTGFQKPMKEYFNYVFERIPQFSAEHTLIIGDSLTADIKGGQLAGLDTCWMNPDMKPNVPEIIPTYEIRKLEELYHILN” the value was “not failed”.
In the case of “MKSGERSAVADRAQQIMSAARELLDAEGPDALSMRRIAERVGIRAPSLYKHFADKAALVAGLQAQGLTLLAEVQEAAEAEIGADPPLLVLGYAYRRHALASPHLYRITHGWPLARTALPEGLEDRAALPLARAVHGDINIARSFWAFAHGMVVLELDGRFPPGADLDVAWRTGCEAFTQAIRNRPHGSTA”, the protein production entry is “not failed”.
Next, “MKSIVIYESVHHGNTEKVAKAMVEELNAECIRAQDLNLEKLKDYDLIGFGSGIFYNKFHKNILKLVGNIGKVNGKKAVVFSTSGQGRESSNKSLRKQLEEKGFKVIGSFACKGFDTFGPLKLLGGIGKGRPDQKDIEEAKKFVLGLEKNLLEHHHHHH”: “failed”; “MKSLATDMTEGNVSKHLIKFAIPLILGNLFQLTYNASDSIIVGRFVGKNALAAVGIANPIMNIVMFFIVGICLGASVLMSEYYGAGNVKKLRREISTTVIAGFIFTVLIIIICVIFTEPILGLVKTPKEIIPEAAIYLRIIFISLIFTFFYNIYAAALRSIGDSKNPLLFLMISAVLNVVMDIVFVVWLKMGVAGSAIATSVAEMMSCVFCIVYVHFKIPILKFSFKDMVIDKGLLRSTVNYSWATAMQQTCLYVGKFMVQGAVNPLGVNSIAAFNAVNRVDDFAFAPEQSISNAMTTFLAQNRGANKYKRIKKGFLTGMKLETLYWCILVGIVYLGSTAIMKLFVSGSEVKVISIGSYYLKLMAFFYLLPSWTNGVQGYFRGMGDMKITLRSTFSQIVGRVAFSYILAPRIGMVGIAFSCLGGWIVMLAYEVPCLIKYRRNFNNKLSESSI”: “failed”; “MKSNDLVDQIMAQVIAKVSEHAPASSAQPSHAQPSYKQRDTAMAEKTCSLTEFVGTAIGDTVGLVIANVDSALLDAMKLEKRYRSIGILGARTGAGPHIMAADEAVKATNTEVVSIELPRDTKGGAGHGSLIIFGGDDVSDVKRAVEVALKELDRTFGDVYANEAGHIELQYSARASHALEKAFGTPLGRSCGVIVGAPASIGVLMADTAVKSANVDVVAYSSPAQGTSFSNEVILVISGDSGAVRQAVISAREIGKTVLATLGAEPKNDRPSYI”: “failed”.
As for “MKSNRLIKRLDWYIIKKFLGTYVFAIALIISIAVVFDFNEKMDKLMEHEAPWDKIIFEYYMNFIPYFSNLFSPLFVFIAVIFFTSKLAENSEIIAMFSTGMSFKRMMRPYMISAAIIAAATFMMSSFIIPKGSVTRLNFEDKYIKPKKVNSVRNVQLEVDSGVIAYIDNYNDGMKTGNRFSLDKFVDKKLVSHLTARRITYDTTTVNKWTIHDYMVRELDGLKEKITKGDRIDSIINMDPSDFLIMKNQQEMLTSPELSEYIEKQKRRGFANIKEFEIEYHKRIAMSFASFILTIIGVSLSSRKTKGGMGLHLGIGLGLSFSYILFQTITSTFAINGNVPPAIAVWIPNILYAGIAFYLYQKAPK”, the protein production entry is listed as “failed”.
For “MKSSNIGGQAVMEGIMMRHKDKYAIAVRRPDKEIELKVEDYKCTFGKAAFLKWPIIRGVVSFVDGLVVGTKCLMYSAEIAGDEEDEKEAAKNATLTEEELSAKKAKEAKQFQ” the value was “not failed”.
For the sequence “MKSSYGSSSNDLHAFVNEIKGEIQLSNINLDPYSFVSPSAYDTAWLSMIEEDINVDDNELKPMFQGCLDWIMCNQNAREGFWMNSTSYTTVADGRDEDGEKDMCILTSTLACVVALQKWNIGCFHLHKGTRYIERNTEMIIGKYINEEGSYPRWFAIKFTGILELAQKLGLHFVFSSRCIEMIKGMFYQRQEIIQREKLVHDCNYKPLLAYLEVLPSKLYVTNQEDIIVKSLDSMDGSLFQSPSATASAFMLTRNTKCLAYLQNLVQKCPNGVPQKYPLNEDLIKLSMVNLIESTGLGEFFGIEIEHVLEQVYSRYEEKDFERMPMSYLADQLHKDSLAFRMLRMHGRDVSPRSFCWFLNDQETRNHLERNIDSFLLVILSVYRATDLMFPGEHDLQEAREYTRNLLEKRRSIKEKMVPIYLNKIMHELSTPWIARLKHLDHRMWIEDKNSNVLSMEKASFLRLHSSYSDKLTHLAARNFEFQQAKYCRELEELTMWVKKWGLSDIGFGREKTTYCYFATVTSLPYEYAIKFGKLAAKTAILITIADDFFDEKGSFNDLEGLTKAVLRWEGEELKSYGNIIFRALDDIVRETANTCRTHHKTDIIVHLRNIWGETFESWLREAEWSKKGHTSSMDEYIRNGMISIAAHTIALSISCLMEPCFPHNKLKPGNYDSITTLLMIIPRLLNDLQSYQKEQEQGKMNSVLLHMKNHPGLEIEDSIAHIEKIIDSKRKEFLEHVLVDGLSDLPKPCKEIHMSCCKVFEMFFNKKNRYDSNTEMLHDIKKALYDPINVYELSEMEPMPLMAHGDEYMILPLLLNSLPNILEFKRKDGYGAMKTSMCFGRSYRVNKRVMASQLDDQHKPLKIVASQRKPVPMMQSIFAPCFY”, the protein production entry is “failed”.
In the case of “MKSVNYRLLFSKSIFLGIFFLNIVFAQAQNEKKYIKEGDAAAASGDSKTALNQYLQAYKLNQTNASLNYKIGVQYLKSEYPHKCLSYFESAYKLDPKVDKDILFNLGVAYQENHRFDEAADYFTKYRATLDPSNPFLKKIDRRLYECANGKEFMEKPVDVKIQSVSSVVNSPYSDFAPVISADEKVMIFTSRRPGSTGGSFDENGQYYEDIYISKKIAGQWGAPQNIGSNINTEFHDASIALSADGSELFIYKDDNAGDIYYCKQRADGSWSKPLPIEGSVNSRTYRENAAAVSPDGNTLFFASNREGGYGKLDLYMVKMNDKGFWGKPINLGPTINTEVDDESPFMDFDGMTLYFSSRAHKGMGGLDIFKTYYDSTKGDWTEPINMGYPINSADDDINFVLSGDGGHGYYASAKDDGVGEKDIYMISMPPREDRTKLIEKMKAMHLDAPIADVVPAPTVAAVLLPITIKGVVKDAETGKPMQTVVQLTDENGKLIAEKNVGPDGLYSFTVKNEAATSYTLSTEKEEFGFINKTFSVPGEKTSSQEITQNLALKKLAVGNVYVLRNIYFDFDKATLKSASNKELNNLLQLLKQNPEMEIEISGHTDSKGSDEYNRVLSRKRAQAVVNWLVSKGISKNRLKFEGYGESRPLASNDDELEGRELNRRTEFKILKK”, the protein production result was “failed”.
For “MKSYQPKSLLNDLQYYITPPHDCSYLDNKSARMVFLDPIHRIDVVTLSELSRVGFRRSGDFVYRPECHLCRQCLSCRVPVHDFNMNSLQKKAWKRNQDLRMSIVPTHAATSVHYQLYERYINERHADGDMFPPSLDQFEKFLVHSCTESFFLELWKDDRLICVSTCDLMDDGLSAVYTFFDPDENRRSLGVFAILKQLEYVKSIDLDYLYLGYWVPHSQKMNYKSQYIPLELLLDGQWRRLNRALSQEEISQLGESLMTILPSEWNSMIIKLEHHHHHH” the value was “failed”; for “MKSYRKELWFHTKRRREFINITPLLEECVRESGIKEGLLLCNAMHITASVFINDDEPGLHHDFEVWLEKLAPEKPYSQYKHNDTGEDNADAHLKRTIMGREVVIAITDRKMDLGPWEQVFYGEFDGMRPKRVLVKIIGE”, “not failed”; for “MKTDVRWATFNIRYDNPQDSLNNWQYRKDRVCQFIKDHELDIVGMQEVLHNQFQDLRAGLPEYDGIGVGRDDGKTAGEYAPLFYRKDKYEVLDSNTFWLAENPDSVGMMGWDAVCVRIATWAKFKDKATGKIFMAVNTHFDHVGEEARRQSALLIIRKIKEIVGERPAVVTGDFNVTDASDAYETITTNEFVMKDAYKTAARVTGVDYTFHDFARIPAEDCEKIDFIFVTPQVLVKSCEIPAEVPEALLSDHNPQLADLELEHHHHHH”, “not failed”.
Take “MKTEKEKREEEEEDLRPFRIHAYSKEELAMLYNPTYCISNAIYTLAAWIRHNKALKGELEKVGYNKYRRTFTPLEVKVLVKYLGEP”: the protein production entry was “failed”.
For “MKTFIIGISGVTNSGKTTLAKNLQKHLPNCSVISQDDFFKPESEIETDKNGFLQYDVLEALNMEKMMSAISCWMESARHSVVSTDQESAEEIPILIIEGFLLFNYKPLDTIWNRSYFLTIPYEECKRRRSTRVYQPPDSPGYFDGHVWPMYLKYRQEMQDITWEVVYLDGTKSEEDLFLQVYEDLIQELAKQKCLQVTA” the value was “failed”; for “MKTKPQAPHVDFYEKSELLHFLDCASKHENPQAFMFFRLLAFTGLRRGEALALQWSDINFETNELTVNKTQAVGKRWRTIIQTPKTNTSYRTIVLDPDTAQWLHKWKMTQARQCFELGFNANDPSQLVFTNQQNKLMSPSTVNYFNWSICKKYGLRHIKIHAFRHTFCTLAFEAHAGINEVSKTLGHADLKITEQIYLHVTKKQKNETASKLARYMSELLEHHHHHH”, “not failed”.
For “MKTLEKVNYKGFIWPLAVGIVLWLITPWRPGGLSVQAWEMFAIFVATIVGCITKPLPIGGTTLLGMVVTVLVGLAPVKDVVNSKGVVIQTGILSSFGNSAAWLIAMAFIMAHGISKTGLGNRVAYVMIEKFGKRSIGIGYAITGLELMMGALIPSNSARTGGVTWPVVESISKSYDSKPNDPSRKKIGAYLDFMAFHANILSTALFITGAAPNLVAQQMAAQKGYQMSWVSWFWAALVPVLVATVIIPLVIYKMYPPEVKETPNAKNWADDKLKEMGPISKPEKIMATVFCLAILLWVLSGFFKIPQLDSAFVAFLAVTLLLITGVLSMEDALHETGAWNILIWLSILIFMAGKLISYGFIAWFAKFIQSEVHGINWGLVLVVLILLMFYTHYFFASGTAHMTALYLPFLTVATAMGAPLGLSAMLLAFTGVINASTTHYANGPASILATTGYVKQSEWWKMNFILGLIYMVIFGIVGTIWMKIIGIW” the value was “failed”; for “MKTLYDLPIVLRNLPEDLVLEKPLPEVSVTIRAYPEILNNLTKEQISLWIDATGKAVGEHTVKIYWQLPAGIEMVSIPDVTYTLKAKEDPLEHHHHHH”, “failed”; for “MKTMNYSLIRILFALVIGLVLVLWPNTAASYIVITIGVAFLIPGVISLFSFFGRKRSEHEPAPRFPIEGIGSLLFGLWLIVMPEFFADVLMFLLGFILIMGGVQQIASLSMARRWTPVPGIFYLVPSLILIAGVIALFNPTGVRNTAFIIIGISSLVYSLSELINWFKFARRRPKTPVTPHDEDIEDAKIIE”, “failed”.
Next, “MKTMRKILEIDEERCNGCGLCVLDCAEGAIAIVDGKAKIVSDSFCDGLGACIGSCPQDALHIIEREAVPFDEEAAMEHVRSQGGTPEANHGHGHGAGTPHRHGQSAEHGGHGRIPGHGGCPGAAMRRFDSAESPAFAVAEGTVKGPGHWPLKIRLVPPTAPFLKGADVLVAADCAAAASPIFHSHFAAGKVVLIGCPKFDDTEAYAERLADILRVSGIASLTVLRMEVPCCRGLSAAAEKARVLSGTSLVLKEVIMTCAGGPAAPAPLSSLLEHHHHHH”: “not failed”.
In the case of “MKTRDKIIQASLELFNEHGERTITTNHIAAHLDISPGNLYYHFRNKEDIIRCIFDQYEQHLLLGFKPYADQKVDLELLMSYFDAMFYTMWQFRFMYANLADILARDDTLKARYLKVQQAVLEQSIAVLNQLKKDGILQIEDERIADLADTIKMIIGFWISYKLTQSSIATISKASLYEGLLRVLMIFKAYSTPDSLANFDRLEQHFRSQSN”, the protein production entry is “not failed”.
